8 substances from PMC2191888 can be followed below.

pIC50, pKd: −log10 of the molar value.

The assay addresses MCP-1 receptor(s) on THP-1 cells (human (endogenous in THP-1)) (UniProt P41597). The experiment in a line: radioligand binding.
“MCP-1 11-76 analogue (from UniProt P13500 34-99) (domain or fragment)” came in with a fold higher Kd than MCP-1 of 48 fold.
Substance “MCP-1 9-76 analogue (from UniProt P13500 32-99) (domain or fragment)” had a pIC50 of 7.77 and a pKd of 8.08.
For the substance “MCP-1 3-76 analogue (from UniProt P13500 26-99) (domain or fragment)”, the pKd was 6.31.
“MCP-1 (Ac) (from UniProt P13500 24-99) (ligand)”: the pKd is 6.48.
On the same count and under the same terms, then “MCP-1 2-76 analogue (from UniProt P13500 25-99) (domain or fragment)”, with 6.41; and “MCP-1 5-76 analogue (from UniProt P13500 28-99) (domain or fragment)”, with 7.64.
In turn, “MCP-1 10-76 analogue (from UniProt P13500 33-99) (domain or fragment)” displayed a fold higher Kd than MCP-1 of 13 fold.
Turning to “Monocyte chemoattractant protein 1 (MCP-1), synthetic, NH2-terminal pyroglutamate form (from UniProt P13500 24-99) (ligand)”, the pKd is 8.55.
